T1: recombinant antigen human CD40L (Recombinant Human sCD40 Ligand; Peprotech, Cat. No.: 310-02) (human, UniProt P29965 113-261)
T1 construct: Soluble recombinant CD40L; also called rCD40L; recombinant antigen CD40L
T1 chain: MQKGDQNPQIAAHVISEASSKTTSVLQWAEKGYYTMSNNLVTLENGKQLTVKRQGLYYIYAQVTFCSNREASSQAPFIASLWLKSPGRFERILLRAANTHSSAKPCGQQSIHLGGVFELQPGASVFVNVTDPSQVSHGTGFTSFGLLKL


Legend:
[1] = target: T2, recombinant human CD40 (R&D systems, Cat. No.: P25942) (human, UniProt P25942 21-193); experiment: ELISA, coated rCD40 1.0 µg/mL, CHO culture supernatant
T2 construct: also called rCD40; human recombinant CD40
T2 sequence (P25942 21-193 limits assumed, one chain of several): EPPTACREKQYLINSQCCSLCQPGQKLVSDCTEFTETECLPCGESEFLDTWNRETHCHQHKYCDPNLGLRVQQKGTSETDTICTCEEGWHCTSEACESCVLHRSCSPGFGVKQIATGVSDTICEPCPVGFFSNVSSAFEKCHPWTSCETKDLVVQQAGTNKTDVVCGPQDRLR
Protocol: Each of the humanized antibody cultures was assayed for reactivity for a recombinant antigen human CD40 (rCD40; R&D systems, Cat. No.: P25942) by ELISA. For this assay, a dilution of rCD40 at a concentration of 1.0 μg/mL in phosphate buffered saline was plated at a density of 100 μL/well into microplates and incubated at 37° C. for one hour to coat the microplates with the antigen which was then blocked by adding a 1× blocking solution (Sigma) in an amount of 200 μl per well and incubating at 37° C. for one hour.
Following one hour of incubation with 100 μL of each of the humanized anti-CD40 antibody cultures at 37° C., the microplates were washed three times with phosphate buffered saline. Treatment with the secondary antibody goat anti-human IgG F(ab′)2-HRP (Jackson Immunoresearch, Cat. No.: 109-035-006) at 37° C. for 30 min was followed by three rounds of washing with phosphate buffered saline. Then, TMB Single Solution (Life Technologies, Cat. No: 002023) was added in an amount of 100 μl per well and incubated at room temperature for 5-10 min in a dark place. Color development was stopped with 100 μL of 1.0 N sulfuric acid and absorbance at 450 nm was measured.

[2] = target: T2, recombinant human CD40 (R&D systems, …); experiment: ELISA, coated CD40 100 ng/well, hybridoma culture supernatant
Protocol: Human recombinant CD40 (R&D systems, Cat. No.:P25942) was plated in an amount of 100.0 ng per well into a MaxiSorp ELISA plate and reacted at 37° C. for one hour for antibody coating, followed by blocking by incubation with 200 μL of 1× blocking solution (Sigma) per well at 37° C. for one hour.

[3] = target: T1, recombinant antigen human CD40L …; experiment: ELISA, antigen coated at 1.0 µg/mL, antibody at 1.0 µg/mL, anti-mouse IgG-HRP
[4] = target: T3, human CD40 expressed on Ramos cell line (ATCC CRL-1596) (human, UniProt P25942 21-277); experiment: flow cytometry on Ramos cells, FITC-5C2 1.0 µg/mL, with or without preincubation with CD40L 15.0 µg/mL
T3 construct: whole, on cells; Endogenous CD40 on Ramos cells; also called CD40 on Ramos cells
T3 sequence (P25942 21-277): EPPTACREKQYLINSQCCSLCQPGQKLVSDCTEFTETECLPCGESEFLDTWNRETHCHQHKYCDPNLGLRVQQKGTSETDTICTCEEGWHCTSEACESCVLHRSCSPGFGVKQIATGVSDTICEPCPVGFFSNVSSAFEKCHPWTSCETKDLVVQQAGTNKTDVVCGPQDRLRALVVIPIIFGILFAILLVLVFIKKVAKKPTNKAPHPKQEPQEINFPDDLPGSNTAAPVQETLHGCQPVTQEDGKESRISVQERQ
Protocol: A solution of FITC Isomer I (Invitrogen, Cat. No.: F1906) at a concentration of 2.6 mg/mL in DMSO (Sigma-Aldrich, Cat. No.:276855) was added in an amount of 20.0 μL to each of the antibody solutions. After FITC conjugation by stirring at room temperature for 2 hours, the resulting antibody solutions were dialyzed against phosphate buffered saline to obtain FITC-labeled antibodies.
The cells were washed again with phosphate buffered saline and then subjected to fluorescent immunoassay using flow cytometry (Stratedigm, S1000EXi).

[5] = target: T4, recombinant antigen human CD40 (Sino Biological Inc., Cat. No.: 10774-H02H) (human, UniProt P25942 21-193); experiment: ELISA (FIG. 2)
T4 construct: Bought antigen used in the ELISA of the chimeric antibodies
T4 sequence (P25942 21-193 limits assumed): as the sequence (P25942 21-193 limits assumed, one chain of several) above
Protocol: A dilution of the recombinant antigen human CD40 (Sino Biological Inc., Cat. No.: 10774-H02H) at a concentration of 1.0 μg/mL in phosphate buffered saline was plated at 100 μL/well into microplates and incubated at 37° C. for one hour to coat the plates therewith. Then, a 1× blocking solution (Sigma) was added in an amount of 200 μL per well and incubated at 37° C. for one hour to block the antigen.
The dilutions were added in an amount of 100 μL/well, incubated at 37° C. for one hour and washed three times with phosphate buffered saline. The antibodies were treated with the secondary antibody goat anti-human IgG F(ab′)2-HRP (Jackson Immunoresearch, Cat. No.: 109-035-006) at 37° C. for 30 min and washed three times with phosphate buffered saline. After reaction with 100 μL of TMB Single Solution (Life Technologies, Cat. No: 002023) per well at room temperature for 4-10 min in a dark place, the color development was stopped with 100 μL of 1.0 N sulfuric acid and then absorbance at 450 nm was measured.

binding result [1] | Binder | also measured
binds | humanized 5C2 antibody VH5VL1 (a combination of heavy chain VH5 and light chain VL1) (antibody, human IgG2, V domains shown, Tested as CHO culture supernatant) VH: EVQLVQSGAEVKKPGESVKISCKASGYGFTNYLIEWVRQMPGKGLEWIGVINPGYGGVNYNEKFKGQATLSADKSISTAYLQLSSLKASDTAVYFCARGGSGFAFWGQGTLVTVSS VL: DIQMTQSPSSLSASVGDRVTITCRASQDISNHLNWYQQKPGKAVKLLISSTSRLHSGVPSRFSGSGSGTDYTLTISSLQPEDFATYFCQQGNTLPWTFGQGTKVEIK | 
binds | humanized 5C2 antibody VH5VL2 (a combination of heavy chain VH5 and light chain VL2) (antibody, human IgG2, V domains shown, Tested as CHO culture supernatant) VH: EVQLVQSGAEVKKPGESVKISCKASGYGFTNYLIEWVRQMPGKGLEWIGVINPGYGGVNYNEKFKGQATLSADKSISTAYLQLSSLKASDTAVYFCARGGSGFAFWGQGTLVTVSS VL: EIVMTQSPATLSVSPGERATLSCRASQDISNHLNWYQQKPGQAVRLLISSTSRLHSGIPARFSGSGSGTEYTLTISSLQSEDFAVYFCQQGNTLPWTFGQGTKVEIK | 
binds | humanized 5C2 antibody VH2VL1 (a combination of heavy chain VH2 and light chain VL1) (antibody, human IgG2, V domains shown, Tested as CHO culture supernatant) VH: QVQLVQSGAEVKKPGASVKVSCKASGYGFTNYLIEWVRQAPGQGLEWIGVINPGYGGVNYNEKFKGRVTLTADKSISTAYMELSRLRSDDTAVYFCARGGSGFAFWGQGTLVTVSS VL: DIQMTQSPSSLSASVGDRVTITCRASQDISNHLNWYQQKPGKAVKLLISSTSRLHSGVPSRFSGSGSGTDYTLTISSLQPEDFATYFCQQGNTLPWTFGQGTKVEIK | 
binds | humanized 5C2 antibody VH3VL1 (a combination of heavy chain VH3 and light chain VL1) (antibody, human IgG2, V domains shown, Tested as CHO culture supernatant) VH: QVQLVQSGAEVKKPGSSVKVSCKASGYGFTNYLIEWVRQAPGQGLEWIGVINPGYGGVNYNEKFKGRATLTADKSTSTAYMELSSLRSEDTAVYFCARGGSGFAFWGQGTLVTVSS VL: DIQMTQSPSSLSASVGDRVTITCRASQDISNHLNWYQQKPGKAVKLLISSTSRLHSGVPSRFSGSGSGTDYTLTISSLQPEDFATYFCQQGNTLPWTFGQGTKVEIK | 

Continued, binder first:

Binder | binding result [1] | also measured
humanized 5C2 antibody VH1VL2 (a combination of heavy chain VH1 and light chain VL2) (antibody, human IgG2, V domains shown, Tested as CHO culture supernatant) VH: QVQLVQSGAEVKKPGASVKVSCKASGYGFTNYLIEWVRQAPGQGLEWIGVINPGYGGVNYNEKFKGRATLTADKSISTAYMELSRLRSDDTAVYFCARGGSGFAFWGQGTLVTVSS VL: EIVMTQSPATLSVSPGERATLSCRASQDISNHLNWYQQKPGQAVRLLISSTSRLHSGIPARFSGSGSGTEYTLTISSLQSEDFAVYFCQQGNTLPWTFGQGTKVEIK | binds | 
humanized 5C2 antibody VH3VL2 (a combination of heavy chain VH3 and light chain VL2) (antibody, human IgG2, V domains shown, Tested as CHO culture supernatant) VH: QVQLVQSGAEVKKPGSSVKVSCKASGYGFTNYLIEWVRQAPGQGLEWIGVINPGYGGVNYNEKFKGRATLTADKSTSTAYMELSSLRSEDTAVYFCARGGSGFAFWGQGTLVTVSS VL: EIVMTQSPATLSVSPGERATLSCRASQDISNHLNWYQQKPGQAVRLLISSTSRLHSGIPARFSGSGSGTEYTLTISSLQSEDFAVYFCQQGNTLPWTFGQGTKVEIK | binds | 
humanized 5C2 antibody VH2VL2 (a combination of heavy chain VH2 and light chain VL2) (antibody, human IgG2, V domains shown, Tested as CHO culture supernatant) VH: QVQLVQSGAEVKKPGASVKVSCKASGYGFTNYLIEWVRQAPGQGLEWIGVINPGYGGVNYNEKFKGRVTLTADKSISTAYMELSRLRSDDTAVYFCARGGSGFAFWGQGTLVTVSS VL: EIVMTQSPATLSVSPGERATLSCRASQDISNHLNWYQQKPGQAVRLLISSTSRLHSGIPARFSGSGSGTEYTLTISSLQSEDFAVYFCQQGNTLPWTFGQGTKVEIK | binds | 
anti-CD40 mouse monoclonal antibody 5C2 (antibody, V domains shown, also called 5C2 antibody (mouse antibody); antibody of hybridoma KCLRF-BP-00381) VH: QVQMLQSGTELVRPGTSVKVSCKASGYGFTNYLIEWVKQRPGQGLEWIGVINPGYGGVNYNEKFKGKAILTADKSSSTAYMHLTSLTSDDSAVYFCARGGSGFAFWGQGTLVTVST VL: DIQMTQTTSSLSASLGQRVTISCRASQDISNHLNWYQQKPNGTVRLLISSTSRLHSGVPSRFSGSGSGTDYSLTISNLEQEDIATYFCQQGNTLPWTFGGGTKLEIK |  | binding result [2]: binds; binding result [3]: no binding (tested: 1.0 µg/mL); binding result [4]: binds
anti-CD40 5C2 chimeric antibody comprising human IgG1 constant region (antibody, expressed in ExpiCHO and purified on Protein A; also called Chimeric IgG1; IgG1 chimeric antibody) heavy: not shown light: DIQMTQTTSSLSASLGQRVTISCRASQDISNHLNWYQQKPNGTVRLLISSTSRLHSGVPSRFSGSGSGTDYSLTISNLEQEDIATYFCQQGNTLPWTFGGGTKLEIKRTVAAPSVFIFPPSDEQLKSGTASVVCLLNNFYPREAKVQWKVDNALQSGNSQESVTEQDSKDSTYSLSSTLTLSKADYEKHKVYACEVTHQGLSSPVTKSFNRGEC |  | binding result [5]: binds
anti-CD40 5C2 chimeric antibody comprising human IgG2 constant region (antibody, also called Chimeric IgG2; IgG2 chimeric antibody) heavy: QVQMLQSGTELVRPGTSVKVSCKASGYGFTNYLIEWVKQRPGQGLEWIGVINPGYGGVNYNEKFKGKAILTADKSSSTAYMHLTSLTSDDSAVYFCARGGSGFAFWGQGTLVTVSTASTKGPSVFPLAPCSRSTSESTAALGCLVKDYFPEPVTVSWNSGALTSGVHTFPAVLQSSGLYSLSSVVTVPSSNFGTQTYTCNVDHKPSNTKVDKTVERKCCVECPPCPAPPVAGPSVFLFPPKPKDTLMISRTPEVTCVVVDVSHEDPEVQFNWYVDGVEVHNAKTKPREEQFNSTFRVVSVLTVVHQDWLNGKEYKCKVSNKGLPAPIEKTISKTKGQPREPQVYTLPPSREEMTKNQVSLTCLVKGFYPSDIAVEWESNGQPENNYKTTPPMLDSDGSFFLYSKLTVDKSRWQQGNVFSCSVMHEALHNHYTQKSLSLSPGK light: DIQMTQTTSSLSASLGQRVTISCRASQDISNHLNWYQQKPNGTVRLLISSTSRLHSGVPSRFSGSGSGTDYSLTISNLEQEDIATYFCQQGNTLPWTFGGGTKLEIKRTVAAPSVFIFPPSDEQLKSGTASVVCLLNNFYPREAKVQWKVDNALQSGNSQESVTEQDSKDSTYSLSSTLTLSKADYEKHKVYACEVTHQGLSSPVTKSFNRGEC |  | binding result [5]: binds
anti-CD40 5C2 chimeric antibody comprising human IgG4 constant region (antibody, also called Chimeric IgG4; IgG4 chimeric antibody) heavy: not shown light: DIQMTQTTSSLSASLGQRVTISCRASQDISNHLNWYQQKPNGTVRLLISSTSRLHSGVPSRFSGSGSGTDYSLTISNLEQEDIATYFCQQGNTLPWTFGGGTKLEIKRTVAAPSVFIFPPSDEQLKSGTASVVCLLNNFYPREAKVQWKVDNALQSGNSQESVTEQDSKDSTYSLSSTLTLSKADYEKHKVYACEVTHQGLSSPVTKSFNRGEC |  | binding result [5]: binds
humanized 5C2 antibody VH1VL1 (a combination of heavy chain VH1 and light chain VL1) (antibody, human IgG2, V domains shown, Tested as CHO culture supernatant) VH: QVQLVQSGAEVKKPGASVKVSCKASGYGFTNYLIEWVRQAPGQGLEWIGVINPGYGGVNYNEKFKGRATLTADKSISTAYMELSRLRSDDTAVYFCARGGSGFAFWGQGTLVTVSS VL: DIQMTQSPSSLSASVGDRVTITCRASQDISNHLNWYQQKPGKAVKLLISSTSRLHSGVPSRFSGSGSGTDYTLTISSLQPEDFATYFCQQGNTLPWTFGQGTKVEIK | binds | 

From US20230192875A1 (KUMHO HT, published 2023)
